How the values were obtained:
[1] = system: Notch1; experiment: Kinetics for Notch activation assay (time course, CHO-K1 N1-Gal4); assay type: cell-based; settings: immobilized at 50 nM; most pronounced in first 4 to 8 hours
Protocol: 96-well tissue culture plates (Coastar) were pre-coated using ligand-oriented coupling as described above with 50 nM of DLL4 biotinylated variants. CHO-K1 N1-Gal4 reporter cells were detached with trypsin-EDTA, washed with DPBS, and 200 μL of α-MEM media containing 30,000 cells were added into wells. Notch activation was analyzed as end-points for 0, 4, 8, 12, 16, 20, and 24-hour measurements. Desired time point wells containing CHO-K1 N1-Gal4 reporter cells were washed once with 200 μL DPBS, detached with trypsin-EDTA, and quenched with 200 μL of α-MEM media. Next, reporter cells were resuspended and analyzed by flow cytometry reading the fluorescence of H2B-mCitrine (BD Accuri C6 Plus). Every time point represents the mean fluorescence intensity of Notch activation as percentage+s.d. of three independent biological replicates. Notch activation was reference-subtracted from a well containing streptavidin, BSA and CHO-K1 N1-Gal4 cells.

[2] = system: CD8+ T cells; experiment: Co-culture assay for T cell proliferation (K32 aAPCs expressing ligand); assay type: cell-based, human; settings: along the OKT3 concentrations, 96 h, vs K32 lacking DLL4 ligands (mock)
Protocol: Functional assays for human CD8^+ T cells were performed in co-culture with K562 cells expressing human CD32 (K32 cells) generated as described before7. Briefly, cells were γ-irradiated (100Gy) and washed twice with PBS before being loaded with OKT3 (0.0125-0.5 μg/mL, BioXcell) antibody at RT for 10 min. Human CD8^+ T cells were negatively isolated from PBMC and labeled with 5 μM of Cell Trace Violet (Invitrogen) according to manufacturer's specifications. Next, CD8^+ T cells were co-cultured with K32 cells at ratio 1:10 (T cell:K32). The frequency of proliferating T cells was determined after 96 hours by flow cytometry using a CytoFLEX II (Beckman Coulter). Zombie Green (Biolegend) was used for life/dead cell staining to discard dead cells from the analysis. A set of samples were additionally incubated with Golgi stop (BD) at 0.5 μL/well for 5 hours and washed with PBS for detection of intracellular IFNγ using anti-hIFNγ APC antibody (Biolegend). The frequency of IFNγ positive cells was analyzed by flow cytometry (CytoFLEX II, Beckman Coulter). Dead cells were excluded from the analysis by staining with Zombie green (Biolegend). The data represent the mean percentage of proliferating T cells or IFNγ^+ T cells±s.e.m. of four independent biological replicates.

Sequence of Notch1 (P46531 295-488 limits assumed): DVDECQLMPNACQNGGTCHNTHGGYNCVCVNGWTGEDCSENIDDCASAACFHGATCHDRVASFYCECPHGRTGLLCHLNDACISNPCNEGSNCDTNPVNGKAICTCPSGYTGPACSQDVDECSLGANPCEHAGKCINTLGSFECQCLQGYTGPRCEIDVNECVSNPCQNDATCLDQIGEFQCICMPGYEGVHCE

B1: Delta^MAX: engineered human DLL4 consensus variant with 10 mutations combining DLL4.v1 and DLL4.v2 mutations; sequence matches SEQ ID NO: 4/10 (protein)
chain: SSVFQLQLQEFINERGVLASGRPCEPGCRTFFRVCLKHFQAVVSPGPCTFGTVSTPVLGTNSFAVRDDSSGGGRNPLQLPLNFTWPGTFSLIIEAWHAPGDDLRPEALPPDALISKFAIQGSLAVGQNWLLDEQTSTLTRLRYSYRVICSDNYYGDNCSRLCKKRNDYFGHYVCQPDGNPSCLPGWTGEYCQQPICLSGCHEQNGYCSKPAECLCRPGWQGRLCNECIPHPGCRHGTCSTPWQCLCDEGWGGLYCDQDLNYCTHHSPCKNGATCRNSGPRSYTCTCRPGYTGVDCELELSECDSNPCRNGGSCKDQEDGYHCLCPPGYYGLHCEHSTLSCADSPCFNGGSCRERNQGANYACECPPNFTGSNCE
- speed of Notch1 activation compared to WT DLL4 [1]: more rapidly

B2: WT DLL4: human wild-type Delta-like 4 (N-EGF5, residues 27-400), SEQ ID NO: 1 (protein)
chain: SGVFQLQLQEFINERGVLASGRPCEPGCRTFFRVCLKHFQAVVSPGPCTFGTVSTPVLGTNSFAVRDDSSGGGRNPLQLPFNFTWPGTFSLIIEAWHAPGDDLRPEALPPDALISKIAIQGSLAVGQNWLLDEQTSTLTRLRYSYRVICSDNYYGDNCSRLCKKRNDHFGHYVCQPDGNLSCLPGWTGEYCQQPICLSGCHEQNGYCSKPAECLCRPGWQGRLCNECIPHNGCRHGTCSTPWQCTCDEGWGGLFCDQDLNYCTHHSPCKNGATCSNSGQRSYTCTCRPGYTGVDCELELSECDSNPCRNGGSCKDQEDGYHCLCPPGYYGLHCEHSTLSCADSPCFNGGSCRERNQGANYACECPPNFTGSNCE
- enhancement of the percentage of proliferating CD8+ T cells [2]: did not show a significant improvement

— patent publication US20260055369A1, “METHOD FOR GENERATING CELLS OF THE T CELL LINEAGE WITH ENGINEERING BROADLY REACTIVE HUMAN NOTCH LIGAND” (H. Lee Moffitt Cancer Center and Research Institute, Inc., priority 2022, published 2026)
